Source: PMC11172124 (Cells, 2024)

What was measured:
[1] = molecular target: T1, Lamin B1 (human (endogenous in MCF10A and MDA-MB-231)), P20700; experiment: non-reducing SDS-PAGE with Western blot; MCF10A cell lysate with 20 mM N-ethylmaleimide, without β-mercaptoethanol, 4 min at 50 °C, 4–12% gradient gel; shows only disulphide-linked species; conditions: remark: other sources report otherwise
T1 chain: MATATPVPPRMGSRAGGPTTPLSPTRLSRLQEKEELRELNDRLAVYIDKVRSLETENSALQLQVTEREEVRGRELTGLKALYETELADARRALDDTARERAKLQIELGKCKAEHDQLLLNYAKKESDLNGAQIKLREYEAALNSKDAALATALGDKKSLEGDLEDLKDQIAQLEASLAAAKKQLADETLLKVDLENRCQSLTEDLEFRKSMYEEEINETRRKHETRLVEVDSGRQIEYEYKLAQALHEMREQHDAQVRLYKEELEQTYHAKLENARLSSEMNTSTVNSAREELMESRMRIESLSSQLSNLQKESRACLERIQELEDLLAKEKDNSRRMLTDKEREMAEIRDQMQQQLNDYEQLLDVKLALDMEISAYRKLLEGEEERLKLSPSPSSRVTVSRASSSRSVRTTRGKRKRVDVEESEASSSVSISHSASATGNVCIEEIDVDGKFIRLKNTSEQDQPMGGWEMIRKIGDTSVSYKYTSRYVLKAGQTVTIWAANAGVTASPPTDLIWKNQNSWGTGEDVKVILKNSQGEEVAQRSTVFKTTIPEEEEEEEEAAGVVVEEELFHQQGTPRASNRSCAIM

[2] = molecular target: the molecule itself; experiment: as above

B1: Lamin B1, P20700 1-586 (natural protein)
chain: MATATPVPPRMGSRAGGPTTPLSPTRLSRLQEKEELRELNDRLAVYIDKVRSLETENSALQLQVTEREEVRGRELTGLKALYETELADARRALDDTARERAKLQIELGKCKAEHDQLLLNYAKKESDLNGAQIKLREYEAALNSKDAALATALGDKKSLEGDLEDLKDQIAQLEASLAAAKKQLADETLLKVDLENRCQSLTEDLEFRKSMYEEEINETRRKHETRLVEVDSGRQIEYEYKLAQALHEMREQHDAQVRLYKEELEQTYHAKLENARLSSEMNTSTVNSAREELMESRMRIESLSSQLSNLQKESRACLERIQELEDLLAKEKDNSRRMLTDKEREMAEIRDQMQQQLNDYEQLLDVKLALDMEISAYRKLLEGEEERLKLSPSPSSRVTVSRASSSRSVRTTRGKRKRVDVEESEASSSVSISHSASATGNVCIEEIDVDGKFIRLKNTSEQDQPMGGWEMIRKIGDTSVSYKYTSRYVLKAGQTVTIWAANAGVTASPPTDLIWKNQNSWGTGEDVKVILKNSQGEEVAQRSTVFKTTIPEEEEEEEEAAGVVVEEELFHQQGTPRASNRSCAIM
[1]
  stoichiometry N: 2

B2: SUN2 (natural protein, UniProt Q9UH99-2 1-738, looked up)
chain: MSRRSQRLTRYSQGDDDGSSSSGGSSVAGSQSTLFKDSPLRTLKRKSSNMKRLSPAPQLGPSSDAHTSYYSESLVHESWFPPRSSLEELHGDANWGEDLRVRRRRGTGGSESSRASGLVGRKATEDFLGSSSGYSSEDDYVEDSEGRGSKVTETEPVSSFPAGYSDVDQQSSSSRLRSAVSRAGSLLWMVATSPGRLFRLLYWWAGTTWYRLTTAASLLDVFVLTRRFSSLKTFLWFLLPLLLLTCLTYGAWYFYPYGLQTFHPALVSWWAAKDSRRPDEGWEARDSSPHFQAEQRVMSRVHSLERRLEALAAEFSSNWQKEAMRLERLELRQGAPGQGGGGGLSHEDTLALLEGLVSRREAALKEDFRRETAARIQEELSALRAEHQQDSEDLFKKIVRASQESEARIQQLKSEWQSMTQESFQESSVKELRRLEDQLAGLQQELAALALKQSSVAEEVGLLPQQIQAVRDDVESQFPAWISQFLARGGGGRVGLLQREEMQAQLRELESKILTHVAEMQGKSAREAAASLSLTLQKEGVIGVTEEQVHHIVKQALQRYSEDRIGLADYALESGGASVISTRCSETYETKTALLSLFGIPLWYHSQSPRVILQPDVHPGNCWAFQGPQGFAVVRLSARIRPTAVTLEHVPKALSPNSTISSAPKDFAIFGFDEDLQQEGTLLGKFTYDQDGEPIQTFHFQAPTMATYQVVELRILTNWGHPEYTCIYRFRVHGEPAH
notes: SUN2, human, endogenous in MCF10A and MDA-MB-231 cells; detected as a ~80 kDa monomer; Free cysteines were alkylated with 20 mM N-ethylmaleimide when the lysate was made; Which isoform the cells express was not determined; also called SUN-domain protein SUN2
[2]
  ratio of the >140 kDa SUN2 signal to the SUN2 monomer signal: ~1
  stoichiometry N: 2
